Assay results as given in paper PMC3545873.

Key:
[1] = molecular target: StrepTag II; conditions: cited from earlier work
[2] = molecular target: StrepTactin; test: optical tweezers (single-molecule pulling); STN covalently coupled to polystyrene beads; tST-DNA-biotin held by its biotin on NTV-coated beads; tST-STN linkage formed in situ; stretched and relaxed at 50 nm/s to just beyond DNA overstretching at about 65 pN until the connection broke; connections that broke below 20 pN disregarded; N = 111

Chain of Streptavidin (P22629 25-183): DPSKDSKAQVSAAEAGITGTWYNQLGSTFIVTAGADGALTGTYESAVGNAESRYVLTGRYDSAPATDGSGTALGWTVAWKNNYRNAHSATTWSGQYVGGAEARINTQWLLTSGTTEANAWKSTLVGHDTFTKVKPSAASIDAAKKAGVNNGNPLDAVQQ

Substance	Kd [1]	average rupture force [2]	fraction of times the tether survives overstretching (first pull) [2]	fraction of times the tether survives overstretching (subsequent pulls) [2]
Streptavidin (from UniProt P22629)	72 µM	–	–	–
tST-DNA-biotin (tandem of two StrepTag II peptides linked to 2553 bp dsDNA, biotinylated at the other DNA end)	–	> 65 pN	77%	87%
